Patent CN111138527A (INST MILITARY MEDICINE ACADEMY MILITARY SCIENCES PLA, dated 2020)

Biological target: 截短型抗原蛋白GPdM (Ebola virus (EBOV), UniProt Q05320 33-632)
Assay: ELISA on coated truncated GP

B1: 抗埃博拉病毒糖蛋白GP1亚基的单克隆抗体4F1 (antibody, V domains shown)
VH: EVQLVESGGGLVQPGGSLRLSCAASGFSFRIYDMHWVRQVTGRGLEWVSAIGSASDTYYRDSVKGRFTISRENAKNSLYLQMNSLRAGDTAVYYCARASFGELMFDLWGQGTLVTVSS
VL: DIQMTQSPSSLSLSPGERATLSCRASQSVGSSLAWYQQKPGQAPRLLIYAASSRATGFPDRFSGSGSGTDFTLTISRLEPEDFAVYYCQQYGGSPLTFGGGTKVEIKT
EC50: 6.9 ng/mL
